Measurements as given in paper PMC11503520.
Several values for one entry are separate records, joined by “and”; a condition that tells them apart may be missing. Equal values may be shown once.

Assays:
[1] = biological target: AAV8 viral protein 3 (VP3) (adeno-associated virus serotype 8); assay: native MS; orbitrap-based CDMS of full particles (FP); mass of the genome subtracted from the mass distribution of FP, then VP stoichiometry of the capsid of FP estimated as for EP
[2] = biological target: AAV8 viral protein 3 (VP3) (adeno-associated virus serotype 8); assay: CE-SDS of purified capsids; AAV8-H4C1, not separated into EP and FP by DG-UC: ratio of the mixture; VP3 is the sum of VP3 and VP3 clip
[3] = biological target: AAV8 viral protein 3 (VP3) (adeno-associated virus serotype 8); assay: native MS; orbitrap-based CDMS of empty particles (EP) of AAV8-H4C1, AAV8-FIXp and AAV8-FIXp hFIX mini-intron after buffer exchange into 200 mM ammonium acetate; average VP stoichiometry estimated from the mass distribution by assigning integer stoichiometries (0-60 for each VP) and weighted averaging
[4] = biological target: AAV8 viral protein 3 (VP3) (adeno-associated virus serotype 8); assay: CE-SDS of purified capsids; empty particles (EP) separated by DG-UC, denatured with SDS and mercaptoethanol, 60 °C 3 min; VP components detected at 214 nm; VP3 is the sum of VP3 and VP3 clip
[5] = biological target: AAV8 viral protein 3 (VP3) (adeno-associated virus serotype 8); assay: CE-SDS of purified capsids; full particles (FP) separated by DG-UC, denatured with SDS and mercaptoethanol, 60 °C 3 min; VP components detected at 214 nm; VP3 is the sum of VP3 and VP3 clip

In the case of “AAV8 viral protein 1 (VP1) (natural protein)”, the VP stoichiometry VP1: VP2: VP3 (copies of VP1 in the capsid) [1] is reported as 1.7 and 3.4 and 1.8, the VP stoichiometry VP1: VP2: VP3 (copies of VP1 in the capsid) [2] is reported as 5.1 and the VP stoichiometry VP1: VP2: VP3 (copies of VP1 in the capsid) [3] is reported as 2.5 and 2.6. For the same substance, the VP stoichiometry VP1: VP2: VP3 (copies of VP1 in the capsid) [4] was 4.9 and 5 and the VP stoichiometry VP1: VP2: VP3 (copies of VP1 in the capsid) [5] was 4.6 and 4.7.

In the case of “AAV8 viral protein 2 (VP2) (natural protein)”, the VP stoichiometry VP1: VP2: VP3 (copies of VP2 in the capsid) [1] is reported as 6.6 and 12.3 and 7.1, the VP stoichiometry VP1: VP2: VP3 (copies of VP2 in the capsid) [2] is reported as 7.8 and the VP stoichiometry VP1: VP2: VP3 (copies of VP2 in the capsid) [3] is reported as 9.4. For the same substance, the VP stoichiometry VP1: VP2: VP3 (copies of VP2 in the capsid) [4] was 9.7 and 9.6 and the VP stoichiometry VP1: VP2: VP3 (copies of VP2 in the capsid) [5] was 9.3 and 7.5.

For “AAV8 viral protein 3 (VP3) (natural protein)”, the VP stoichiometry VP1: VP2: VP3 (copies of VP3 in the capsid) [1] was 51.7 and 44.2 and 51, the VP stoichiometry VP1: VP2: VP3 (copies of VP3 in the capsid) [2] was 47 and the VP stoichiometry VP1: VP2: VP3 (copies of VP3 in the capsid) [3] was 48. For the same substance, the VP stoichiometry VP1: VP2: VP3 (copies of VP3 in the capsid) [4] was 45.4 and the VP stoichiometry VP1: VP2: VP3 (copies of VP3 in the capsid) [5] was 46.1 and 47.8.
